IntAct's records for PubMed 20094029

B1: BRCT-containing protein 1 (Schizosaccharomyces pombe (strain ATCC 38366 / 972)), Q10337 (parent)
chain: MLAAESSNKELFIKNDGKALSFPYDWKLATHVICDDFSSPNVQEGSKRSLRLAKTNWIRDCVDKNTLLNYSFYSCNPYLLFKGICASSCQIDSYQSSLIDDALETFGGRFSKGLMKSMTHLFTYSGMGAKCKKVLDKPSLSIKLIHPQWLLDCLQFGQLIDQDPYLFPNPSYKKNDSSISKAEPTSLFRNVLHGKRIYFSNDLNLPTNFRHSLQKFSVGIGAKIAESINDCDIFIGLKRDTIEFNLASNKNTTIGTISWLLNLFVLGSWKSPLLNALHYPFPSVGFLKDQMVAVTNYTDAARIYLEKLLLACGATYTKDLKPTNTLLIAASSYGQKYGAAKVWNIPTVHHSWLYSSFKNLSSQAFTDFPVPLDDSYMDFIFPCPLNVEKGSFEDTLKSSLTKGNSEVLLDDLSDPSVSSIKGNKTNEELEKEFKSTSDNFGKHIILTSSFSNQSADKGSSLAAEDDRNDEGSTITGVNRELQDEGRLEIDAKSSKTNTPPSPLLVGTPSKESLKEASSDDELPVLATKLVDNVIKEKSPLSLTPKVVVPSHKETYTDEKKLIDELDRVNPLNSSQLLRSKRKSAATALSMLQNVIMPDVLAFEREKKRRQTHRSVSSGEVSRESSESRNTNAKASKRVYITFTGYDKKPSIDNLKKLDMSITSNPSKCTHLIAPRILRTSKFLCSIPYGPCVVTMDWINSCLKTHEIVDEEPYLLNDPEKELELGCTLESALKRARAQGPSLLEDYVVYLTSKTVAPENVPAVISIVKSNGGVCSTLNVYNKRLARHLEDGNVVLITCNEDSHIWTNFLDNASQNKTIFLQNYDWLIKTVLRQEIDVNDRIADEFARAV

Variants of: B1
Conditions: with h2a1_schpo hta1, P04909
T643A was tested, and the “effect of a mutation on the interaction” value was “disrupting interaction”.
